The target of assay [1] is TrkB fused to a low affinity small fragment of β-galactosidase (TrkB-PK) (UniProt Q16620). The assay is described as follows: cell-based or functional assay.
The target in assay [2] is T1, insulin receptor (INSR) (Homo sapiens, UniProt P06213).
T1 construct: host or cells: U2OS
The assay is described as follows: PathHunter INSR-PK / SH2-containing protein-EA assay in U2OS cells, agonist mode. The class given is cell-based. The conditions noted are these: U2OS INSR-PK cells, 10,000 cells/well, 3 hours at room temperature.

Assay [3] addresses TrkC fused to a low affinity small fragment of β-galactosidase (TrkC-PK) (UniProt Q16288). Kind of assay: cell-based or functional assay.
The target of assay [4] is T2, TrkC (Homo sapiens, UniProt Q16288).
T2 construct: host or cells: U2OS
The assay is described as follows: PathHunter TrkC-PK / SH2-containing protein-EA assay in U2OS cells, agonist mode. The class given is cell-based. The conditions noted are these: 3 hours at room temperature. Here is the method:
FIG. 8 is a graph of the dose response in U2OS cells of TrkC fused to a low affinity small fragment of β-galactosidase (TrkC-PK). Cells were plated in a 384-well plate at 10,000 cells/well, stimulated with NT3 (Peprotech, Cat #/450-03), a known ligand for TrkC, for 3 hours at room temperature according to the assay procedure provided. Following stimulation, detection reagents were added and signal was detected after 1 hour using the PathHunter® Detection Kit (93-0001).
(§1) Generally, the expression constructs for the fusion proteins includes at least (in order of 5′ to 3′) a promoter, followed by the receptor or SH2 domain, followed by a linker, followed by either the EA or PK. […] SH2-EA complex formation with the RTK was detected with 50% (v/v) of PathHunter® Detection Reagent (Dx 93-0001, PathHunter reagents are available from DiscoveRx, Corp., Fremont, Calif.) (Lysis buffer active ingredient 1% CHAPS, Emerald II™ and Galacton Star™ are from Applied Biosystems).
10K cells/well TrkC-PK SH2-containing protein-EA double stable cells were plated in a 384-well plate, stimulated with NT3 (Peprotech, Cat #/450-03), a known ligand for TrkC for 3 hours at room temperature according to the assay procedure provided. Following stimulation, detection reagents were added and signal was detected after 1 hour using the PathHunter® Detection Kit (93-0001).

In assay [5] the target is G-CSFR (granulocyte-colony stimulating factor receptor) fused to a low affinity small fragment of … (UniProt Q99062 25-836, tyrosine-phosphorylated on activation (by Jak2); sites not stated). The assay is described as follows: cell-based or functional assay.
In assay [6] the target is T3, TrkB (Homo sapiens, UniProt Q16620).
T3 construct: host or cells: U2OS
The assay is described as follows: PathHunter TrkB-PK / SH2-containing protein-EA assay in U2OS cells, agonist mode. In kind it is cell-based. The conditions noted are these: 3 hours at room temperature. Here is the method: FIG. 7 is a graph of the dose response in U2OS cells of TrkB fused to a low affinity small fragment of β-galactosidase (TrkB-PK). Cells were plated in a 384-well plate at 10,000 cells/well stimulated with BDNF (Peprotech, Cat #/450-02), a known ligand for TrkB, for 3 hours at room temperature according to the assay procedure provided. Following stimulation, detection reagents were added and signal was detected after 1 hour using the PathHunter® Detection Kit (93-0001).
as §1
10K cells/well TrkB-PK SH2-containing protein-EA double stable cell were plated in a 384-well plate, stimulated with BDNF (Peprotech, Cat #/450-02), a known ligand for TrkB for 3 hours at room temperature according to the assay procedure provided. Following stimulation, detection reagents were added and signal was detected after 1 hour using the PathHunter® Detection Kit (93-0001).

In general, EC50 refers to the concentration that produces a half-maximal response. Read a high EC50 as a less potent agent.

Sequence of G-CSFR (granulocyte-colony stimulating factor receptor) fused to a low affinity small fragment of … (Q99062 other isoform, or with tags, fused parts or gaps): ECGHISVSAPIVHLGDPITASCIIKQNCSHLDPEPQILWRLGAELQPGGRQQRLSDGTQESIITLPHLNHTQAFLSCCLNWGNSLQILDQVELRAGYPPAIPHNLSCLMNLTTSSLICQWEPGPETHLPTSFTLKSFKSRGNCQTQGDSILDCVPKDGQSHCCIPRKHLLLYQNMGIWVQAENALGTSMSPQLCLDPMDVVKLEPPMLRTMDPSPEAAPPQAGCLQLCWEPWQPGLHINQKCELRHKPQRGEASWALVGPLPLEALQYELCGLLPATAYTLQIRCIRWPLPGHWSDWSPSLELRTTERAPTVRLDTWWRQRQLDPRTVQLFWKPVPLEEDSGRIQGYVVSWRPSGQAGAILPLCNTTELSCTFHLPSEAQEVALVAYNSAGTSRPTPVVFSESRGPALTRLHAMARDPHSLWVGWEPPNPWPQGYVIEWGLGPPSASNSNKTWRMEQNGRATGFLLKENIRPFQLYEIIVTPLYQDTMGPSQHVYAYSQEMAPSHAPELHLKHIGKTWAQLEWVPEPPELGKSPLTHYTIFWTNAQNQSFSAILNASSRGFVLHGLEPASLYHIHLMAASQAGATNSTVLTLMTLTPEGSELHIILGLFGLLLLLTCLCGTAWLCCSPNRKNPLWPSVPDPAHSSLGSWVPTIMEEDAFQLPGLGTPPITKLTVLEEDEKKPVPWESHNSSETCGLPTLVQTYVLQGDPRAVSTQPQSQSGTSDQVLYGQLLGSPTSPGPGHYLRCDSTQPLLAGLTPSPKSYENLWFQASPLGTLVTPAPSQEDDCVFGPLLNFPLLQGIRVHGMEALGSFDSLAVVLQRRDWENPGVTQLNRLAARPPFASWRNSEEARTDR

In assay [1], “BDNF (Peprotech, Cat #/450-02) (from UniProt P23560 129-247) (ligand)” came in with an EC50 of the BDNF dose response (PathHunter β-galactosidase complementation of TrkB-PK and SH2-containing protein-EA in U2OS cells) of 4.21 ng/mL; an assay window of the BDNF dose response (PathHunter β-galactosidase complementation of TrkB-PK and SH2-containing protein-EA in U2OS cells) of 4 fold.

The molecule “IGF1: IGF1 (Peprotech, Cat AF-100-11), a known ligand for IGF1R” registered a concentration giving a half-maximal response (EC50) in assay [2] of 2.0 ng/mL. In assay [3], “NT3 (Peprotech, Cat #/450-03) (from UniProt P20783 139-257) (ligand)” showed an EC50 of the NT3 dose response (PathHunter β-galactosidase complementation of TrkC-PK and SH2-containing protein-EA in U2OS cells) of 7 ng/mL; an assay window of the NT3 dose response (PathHunter β-galactosidase complementation of TrkC-PK and SH2-containing protein-EA in U2OS cells) of 8.1 fold. Consider “NT3: NT3 (Peprotech, Cat 450-03), a known ligand for TrkC”, for which the half-maximal effective concentration (EC50) in assay [4] (U2OS TrkC-PK cells, 10,000 cells/well) was determined as 7 ng/mL. The same molecule returned an assay window in assay [4] (U2OS TrkC-PK cells) of 8.1 fold.

B1: G-CSF (Peprotech 300-23) (ligand, UniProt P09919-2 31-204, looked up)
chain: TPLGPASSLPQSFLLKCLEQVRKIQGDGAALQEKLCATYKLCHPEELVLLGHSLGIPWAPLSSCPSQALQLAGCLSQLHSGLFLYQGLLQALEGISPELGPTLDTLQLDVADFATTIWQQMEELGMAPALQPTQGAMPAFASAFQRRAGGVLVASHLQSFLEVSYRVLRHLAQP
With B1, in assay [5], the “EC50 of the G-CSF dose response (PathHunter β-galactosidase complementation of CSF3R-PK and SHC1-EA in U2OS cells, Jak2 construct)” value came to 4 ng/mL; the “assay window of the G-CSF dose response (PathHunter β-galactosidase complementation of CSF3R-PK and SHC1-EA in U2OS cells, Jak2 construct)” value is 7 fold.

B2: BDNF: BDNF (Peprotech, Cat 450-02), a known ligand for TrkB (protein, UniProt P23560 19-247, looked up)
Neurotrophic factor BDNF …: APMKEANIRGQGGLAYPGVRTHGTLESVNGPKAGSRGLTSLADTFEHVIEELLDEDQKVRPNEENNKDADLYTSRVMLSSQVPLEPPLLFLLEEYKNYLDAANMSMRVRRHSDPARRGELSVCDSISEWVTAADKKTAVDMSGGTVTVLEKVPVSKGQLKQYFYETKCNPMGYTKEGCRGIDKRHWNSQCRTTQSYVRALTMDSKKRIGWRFIRIDTSCVCTLTIKRGR
B2 registered an EC50 in assay [6] (U2OS TrkB-PK cells, 10,000 cells/well) of 4.21 ng/mL. Also, the assay window in assay [6] (U2OS TrkB-PK cells) is reported as 4.0 fold.

Values taken from patent US8067155B2, “Receptor tyrosine kinase assays” (DiscoveRx Corporation, priority 2008, dated 2011).
